Source: the DeepSol protein solubility set

Assay: soluble on expression in E. coli; label from the status in PepcDB or PDB records

Soluble on expression in E. coli, not soluble:
GYDCLGYYQNQEDIMNSPKRQSSVNLGAGDLKYNDFNGDGIIDGSDQHRIGKNSMPRGQYGFSADLNYKGWFMNMLWQGATPADLYMGGMIQGSQSGSGYPPVIYDFQTDVWTPNNTGARYPRLRSTASYNGSNNYGSSDFWLINTGYLRLKTLSIGYDFKHKLLKRVAWMNKCNVSLNGYNLLTFSKANKFDIDPEIGDGNLYTYPVSRVYSISVNVGF
MVIAYVDANLQTNRQTIYFDHDLNRNKYNTIQLKKLTMTQDSDSEYEIERIIDHVSFLEAYESFYGQNVKRFAAIFSEERFKRTKKPQLISNYFFLVKWLGYGNKEMTWEPESNIPDSVYLYEYKKLNNMVMNRMNLKVSLTFTSRRKGYTPPVILEELQERKPKPQFLNMSNMAITLNDNLNNGKFGIVPVPKYKKKFGQNVNYLKFGNEVYKMKNVSFKDSTNNDIDNRVQQHHHEDRSFLQSMIKHNNIVRMRDLFVSYNKLDETVNITSIYDWCHQNLRQQLNNEKVSWKKVCRDILNALSFIHPYGIHQGVSLDHIYYHKGGTYKLSHFNNFFFGKRIPAEKVKSDRVELAPRLYNLKFKLGRNSDIYALAIVLLQCHNKKFSFRVNPSSVMEIEEDIAKGMSAFENKDDRHFLKSLLRARLHVYHGSGHYRFTSSSLLHHPVLQEPTARSVECFYFHSMLASPMKEIIHYHANDKISDVLQRFISLYHTSQEAEDKKYIMMFTKDTSSCDSVVLLNSLENFERVVDIDLTIMKNTLLIAPIILPSPENENCQKFLIIYEQELGGCPIVIETPEVNAAKFAKQLKEYSVSHEYRNRRLGLFPKLPGGDQQENGGLPEFSHHVWQMQLESNDDTVIKNRFDIASEIEMPLSGEMLEWDDVAGIANYGEILRNNSDNTTSRRKRETCSSDELDEAHAKREKVD
MENSNENDIVLTWWDWGHFVTYYARRSPVAQGSPNSGVAGYYLGLVDNGWAQSLGVDYVIVSLYDILKFEAIVDTAKLSRKWENISRADYGVDFLKLTESTGSILRFDSQYSTLIVKEGNIRVILSGKVVYPREAIIESNGRIKNLKYPARSGVYVYVNLDYGYAILEHHHHHH
MGSDKIHHHHHHMRGMMLGMLAETHIHSGAGRSEGFVDLPVAREAVTSYPVIAGSSLKGALRDAARERGMDESIFGDQDRAGDVLVSDARLLLLPVRSLTGSYRWVTCPHILERLSRDMRLCGISDGFEGASVERGKACCTDDLNQIFLEEREFQRSNGIDGALIDALKKMVPHKQTASRLERQLVIISDDDFGWFASYGLPVIARNKLDDNKKSKNLWYEEALAPDTLMYAMVFERKDGALGKVQSMFETKPYLQLGGNETVGMGWFAVKILEQGEGR
MNNIAAPDQSFNPAHVLSFDLETTSANPFEARIVTSALVRIDSSGAHPVELLADPGVEIPEAASKVHGISTEYAREHGEPHEAVLKRTVDEIYAAWEEGFTLVVYNAPYDLTVLRQLTGDFVVKGPVYDPYLIDRIMDRFRKGKRTLTDLCSVYGVRMDNAHEATSDALAAARIAWMQAKKRFKDDLAAYSHDELMEYQAVQYYELQKDMKKYLDGLGRDTSTVNFGWPMQNSR
MPITKIHARQIYDSRGNPTVEVDLFTEKGVFRAAVPSGASTGVHEALELRDGDKAVHLGKGVLKAVSNINEKIAPALIAKGFDVTAQKDIDDFMMALDGSENKGNLGANAILGVSLAVAKAGAVHKGLPLYKYIAELAGTGKVVLPVPAFNVINGGSHAGNKLAMQEFMILPVGASSFAEAMRMGSEVYHHLKAEIKKRYGLDATAVGDEGGFAPNIQDNKEGLDLLNTAIDKAGYTGKISIGMDVAASEFFKDGKYDLDFKNPASDSSKWLSGEQLTELYQSFIKEYPVVSIEDAFDQDDWDNWGKFHGATSIQLVGDDLTVTNPKRIQTAIDKKSCNCLLLKVNQIGSVTESIEAAKLSRANGWGVMVSHRSGETEDTFIADLVVGLATGQIKTGAPCRSERLAKYNQLLRIEEELGADAVYAGHNFRNPQV
MFLNTNEILDYSALKYMPNLKSLTVANAKIKDPSFFANLKQLNHLALRGNEFSDVTPLVKMDHLDSLDLSNNKITNVAPLIEMKNVKSLYLSGNQIEDVTALAKMEQLDYLNLANNKITNVAPLSALKNVTYLTLAGNQIEDIKPLYSLPLTDLVLTRNKVKDLSGIEQMKQLEELWIGKNEIKDVTPLSKMTQLKQLHLPNNELKDITPLSSLVNLQKLDLEANYISDLTPASNLKKLVFLSFVANEIRDVRPVIELSKTAYINVQNQKVFLEETEVNKEVKVPIYEKDGKISTKIRLKGEGGTYSNDAVKWSTPGEKVYEFGVKDPFADTGIFFTGSVIQNVVESKADNTSKEDNTSKEDAKVEVVEFKDVPKGHWSEEAIHYLAKENIFKGYGNGQFGFGDSITRGQVASLVQRYLKLENKVEQKERFTDTKGHMFEQDIATVAQAGIMQGDGTGEFRPDGVLTRYEMSVVLYKVFQLKEDGNNKVNFKDVPTGHWAEGYVKALVDNNISKGDGKERFLGDDFVTREQYAQFLYNAITK
MAKKVLIISSSPRKGGNSDMLCDEFMKGVLETGNEVEKIFLKEKVIHPCTGCSVCSMYGKPCPQKDDAAGIVEKMIAADVIVMATPVYFYTMCGQMKIMIDRCCARYTEITNKEFYFIIAAAENDKGMMERTIDGFRGFLDCLENPQEKGVIYGIGAWKVGEIKDTPYMQEAYEMGKMV
MAITNIKCVIFDCDGTLVDSERLCCQALVNVFNQHGAELTMEECVSHFKGGKLADILLDTKELMNINVPIDVLEPQYRTEVQKLFVRHLQPMDGAKRLIQFLDSHNIEYCVASNGPKDKIEHALELTGLLDAFKGKVFSAFEANSWKPEPDLIMYSAMSMGFLPSDCLYIDDTPKGVEAGLNAGIKTVQLFNGEAINRVDDDRVIRIQHLDELKEQLMGCSV

Soluble on expression in E. coli, soluble:
MGSSHHHHHHGKTIFVIVPTNEEQVAFLEALAKQDELNFDWQNPPTEPGQPVVILIPSDMVEWFLEMLKAKGIPFTVYVEEGGSENLYFQGGGGGGAKDCITRGPNSMIAWKYEDGSFQCDNCIGAHAVGVSSGTVRRRWTEYDKDRNILNSFVEEHREGKKLVLHDESRGMSILLRSDLSGIRTEGEQTFRQLYSGAFISVVDCT
MAHHHHHHMSALKDKTGRFVVLDKNASNYESLVDQEMNNVYERVMKLDPNQVEFLQAFHEILYSLKPLFMEEPKYLPIIETLSEPERAIQFRVCWLDDNGVQRKNRCFRVQYNSALGPYKGGLRFHPSVNLSIVKFLGFEQIFKNSLTGLSMGGGKGGSDFDPKGKSDNEILKFCQAFMNELYRHIGPCTDVPAGDIGVGGREIGYLYGQYKKIVNSFNGTLTGKNVKWGGSNLRVEATGYGLVYFVLEVLKSLNIPVEKQTAVVSGSGNVALYCVQKLLHLNVKVLTLSDSNGYVYEPNGFTHENLEFLIDLKEEKKGRIKEYLNHSSTAKYFPNEKPWGVPCTLAFPCATQNEINLEDAKLLQKNGCILVGEGANMPSTVDAINLFKSNNIIYCPSKAANAGGVAISGLEMSQNFQFSHWTRETVDEKLKEIMRNIFIACSENALKYTKNKYDLQAGANIAGFLKVAESYIEQGCF
MLTVDLSGKKALVMGVTNQRSLGFAIAAKLKEAGAEVALSYQAERLRPEAEKLAEALGGALLFRADVTQDEELDALFAGVKEAFGGLDYLVHAIAFAPREAMEGRYIDTRRQDWLLALEVSAYSLVAVARRAEPLLREGGGIVTLTYYASEKVVPKYNVMAIAKAALEASVRYLAYELGPKGVRVNAISAGPVRTVAARSIPGFTKMYDRVAQTAPLRRNITQEEVGNLGLFLLSPLASGITGEVVYVDAGYHIMGMELEG
MMKTMRIAAIPGDGIGKEVLPEGIRVLQAAAERWGFALSFEQMEWASCEYYSHHGKMMPDDWHEQLSRFDAIYFGAVGWPDTVPDHISLWGSLLKFRREFDQYVNLRPVRLFPGVPCPLAGKQPGDIDFYVVRENTEGEYSSLGGRVNEGTEHEVVIQESVFTRRGVDRILRYAFELAQSRPRKTLTSATKSNGLAISMPYWDERVEAMAENYPEIRWDKQHIDILCARFVMQPERFDVVVASNLFGDILSDLGPACTGTIGIAPSANLNPERTFPSLFEPVHGSAPDIYGKNIANPIATIWAGAMMLDFLGNGDERFQQAHNGILAAIEEVIAHGPKTPDMKGNATTPQVADAICKIILR
MKIYYEGYGCTLNQGETGLYVNKLLSEGSVLVSRPDEADISIIGTCAVIQKTEDHMLKRIEELSRLGRVKVIGCLSAIKGSEISGGNIEAIDRNEFQQFQEYLEDTSIIDAEIMSGIPINQGCTGKCNFCISHIARGKLVSRRPEKIVNQIRMMVAAGKREIRISSLDTAAYGKDTGYRLPSLIKDITAVDGDFMLRVGMMEPRNTIEILDDLLEAYDDPKVFKFLHIPVQSGDDRVLTAMNREYTVDEFMQIIESFRKRFPDMTISTDVIIGYHAENDRSFDLTCDLIRKVQPEIINVTRFSPRELTPDFEHRPRPTNVLKDQDRTMAEIHRKIVSERFSALVGKVERILITEDGKPGTMVGRDASYRPVVIRAPAEKYTWHSARIIGYENTSLIGELVDLEHHHHHH
MKIAVDAMGGDNAPQAIVEGVMLAKQDFPDIEFQLYGKEAEIKKYITDEKNITIIHTDEKIASDDEPVKAIRRKKTASMVLAAQAVKNGEADAIFSAGNTGALLAAGLFIVGRIKNVERPGLMSTLPVMGEPDKGFDMLDLGANADNKPEHLVQYAVLGSFYAEKVRNVQNPRVGLLNNGTEETKGSELTKKAFELLAADETINFVGNVEARELLNGVADVVVTDGFTGNAVLKSIEGTAMNMMSLLKTAILSEGVKGKMGALLLKNALHGMKDEMDYSKHGGAVLFGLKAPVIKTHGATGPDAVRYTIRQIHTMLETQVVPQLVEYYEGKAE
MSLKYKNLFFDLDDTIWAFSRNARDTFEEVYQKYSFDRYFDSFDHYYTLYQRRNTELWLEYGEGKVTKEELNRQRFFYPLQAVGVEDEALAERFSEDFFAIIPTKSGLMPHAKEVLEYLAPQYNLYILSNGFRELQSRKMRSAGVDRYFKKIILSEDLGVLKPRPEIFHFALSATQSELRESLMIGDSWEADITGAHGVGMHQAFYNVTERTVFPFQPTYHIHSLKELMNLLEGHHHHPPLIRIRAPSTSLRPHSSTTTTTTEIRLLTKPERKLSWLLPPLSNN
AIADIEVDIIEFKVPLENNKTIFIWDIQPTFTEAYIYESLWSVYSAFGDLYLLKVCPNATVAEPGFYALVKFYSSAQASKAQRATDKQCLFQSSPLKVRLSTKQNLSFYSSKPLCLSKCHNLANHYLGFGGWTTRIVTLKDLSNCVDAGCQEETGDQGVLLKYGCIMELSFPHHGMSCQGVGVAEEVLDSDQDPEEKLRKRGALMKRAKDKAMEVAFEKVLLLILGNGKVAIEIKIDPDEIVPEENSERVIKVNDISWTHIESADSNAEEDFLWDLTEDLPY
MRRCPLCHSTQTHLLLQDKKRCFYICQTCWLTFADANSHLPPAAEKQRYGRSRIASKQRHLSQFILPLLTQIQQQQNGSLTGLNFGRVLDQTSLETIESAGHTFKQYDPFFAPDHETLKQEYDFICCYRVFEHFQYPIKEWSLLTRLLKPGGWLAISTPLLIDLEGFAKWHYKNNLTHVSFYQRQTFEYLASNSDFELLFAAKDLVLMQKTSLEHHHHHH
MGHHHHHHSHQVLTTSRKPGRKTRRFAKVLARFFNWKYVNRGKLSLEDLAGIAERFWIISEVKGNPAILNLYERGEKTLEVSFTLSNVNKIKMDDSPAVFKGKAPIDPLVFGAIPQTKAGLKLTRKVEFRKKVVVKGDEWLFFYDDEMLFKLRILKISRSS
